Consider one molecule from patent publication US20080166698A1 (Genentech, published 2008).

This test addresses T1, recombinant human DAF (human, UniProt P08174 35-353, limits assumed).
T1 construct: also called decay accelerating factor; CD55
T1 sequence (looked up): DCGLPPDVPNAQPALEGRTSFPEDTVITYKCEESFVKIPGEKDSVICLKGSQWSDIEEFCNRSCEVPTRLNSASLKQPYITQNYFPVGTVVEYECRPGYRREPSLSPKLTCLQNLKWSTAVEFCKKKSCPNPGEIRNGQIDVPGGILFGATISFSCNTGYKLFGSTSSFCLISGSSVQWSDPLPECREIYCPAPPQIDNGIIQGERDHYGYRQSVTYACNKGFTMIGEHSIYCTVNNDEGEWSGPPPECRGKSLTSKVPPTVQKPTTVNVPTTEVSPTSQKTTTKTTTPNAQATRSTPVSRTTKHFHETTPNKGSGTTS
Nature of the test: SPR (BIACORE 1000), recombinant human DAF on a CM-5 chip, LU30 scFv injected. Here is the method:
Affinity Measurements. Kinetic measurements were made by surface plasmon resonance using a BIACORE 1000™ Biosensor (Biacore, AB Uppsala, Sweden). CM-5 chips were functionalized with 350 response units recombinant human DAF in 10 mM sodium acetate (pH 4.6) or 8,000 response units bovine serum albumin as a negative control. The DAF-derivatized chip was saturated with LU30 scFv (25-100 nM) by injecting this fragment at 10 :l/min in PBS containing 0.5% (w/v) bovine serum albumin and 0.05% (v/v) TWEEN 20™. The resultant sensorgrams were analyzed using BIAEVALUATION™ software 3.0.
Background: In SPR one partner is held on a chip, and binding of the other changes the refractive index at the surface.

B1: LU30 scFv (scFv, V domains shown)
VH: QVKLQESGGGLVQPGGSLKLSCAASGFTFSGYGMSWIRQTPDKRLEWVATINSGGSYTYYSDSVKGRFTISRDNVKNTLYLQMSSLKSEDTAMYYCARRNGTLYYYLMDYWGRGTLVTVSS
VL: QSVLTQPPSASGSPGQSVTISCTGTSSDVGGYNYVSWYQQHPGKAPKFMIYDVSKRPSGVSNRFSGSKSGNTASLTISGVQAEDEADYYCSSYTSASTVIFGGGTKLTVL
notes: Human scFv from a naive phage library, secreted from E. coli and purified through its His tag; also called clone LU30; LU30 scFv fragment; not shown: scFv linker between the domains, domain order, and the His tag
In the case of B1, the equilibrium dissociation constant (Kd) (as a rule, a measure of binding affinity in units of concentration) came to 13 nM; the koff – broadly, the rate constant with which the complex falls apart – was 0.0045 s⁻¹; the kon (as a rule, the rate constant with which the complex forms) came out at 340000 M⁻¹ s⁻¹.
